Reference: patent US20230052369A1 (Zymeworks, published 2023)
Changes are numbered by the printed parent chain. Names and notes keep the numbering of the source.

B1: v23820 (antibody, human IgG1, kappa, V domains shown)
VH: QEQLVESGGGLVQPEGSLTLTCKASGFTISNNYYMCWVRQAPGKGLEWIACIYGGISGRTYYASWAKGRFTISKTSSTTVTLQMTSLTAADTATYFCVRGYVGTSNLWGPGTLVTVSS
VL: DIVMTQTPASVEAAVGGTVTIKCQASQSIYSSLAWYQQKPGQSPKLLIYDASHLASGVPSRFSGSRYGTEFTLTISGVQCDDAATYYCQGGWYSSAATYVPNTFGGGTEVVVKR
notes: FSA format; rabbit variable domains, human IgG1/kappa constant domains; also called 8K22 rabbit-human parental chimera
B2: v23794 (antibody, human IgG1, kappa)
heavy: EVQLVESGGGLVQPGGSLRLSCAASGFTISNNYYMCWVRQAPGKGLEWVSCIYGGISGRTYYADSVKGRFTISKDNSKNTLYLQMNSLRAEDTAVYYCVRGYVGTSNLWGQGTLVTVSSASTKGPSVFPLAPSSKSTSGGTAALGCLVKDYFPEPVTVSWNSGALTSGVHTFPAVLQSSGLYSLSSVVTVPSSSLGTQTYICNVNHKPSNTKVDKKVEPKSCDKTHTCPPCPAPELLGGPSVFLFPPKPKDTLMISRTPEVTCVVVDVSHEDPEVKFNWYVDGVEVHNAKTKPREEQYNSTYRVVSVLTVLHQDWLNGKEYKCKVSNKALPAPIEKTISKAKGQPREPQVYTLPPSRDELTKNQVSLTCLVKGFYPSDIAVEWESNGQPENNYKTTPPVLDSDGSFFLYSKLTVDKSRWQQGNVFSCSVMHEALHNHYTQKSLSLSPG
light: DIQMTQSPSSLSASVGDRVTITCQASQSIYSSLAWYQQKPGKAPKLLIYDASHLASGVPSRFSGSGSGTDFTLTISSVQPEDFATYYCQGGWYSSAATYVPNTFGGGTKVEIKRTVAAPSVFIFPPSDEQLKSGTASVVCLLNNFYPREAKVQWKVDNALQSGNSQESVTEQDSKDSTYSLSSTLTLSKADYEKHKVYACEVTHQGLSSPVTKSFNRGEC
notes: also called humanized 8K22 H1L1
B3: v23796 (antibody, human IgG1, kappa)
heavy: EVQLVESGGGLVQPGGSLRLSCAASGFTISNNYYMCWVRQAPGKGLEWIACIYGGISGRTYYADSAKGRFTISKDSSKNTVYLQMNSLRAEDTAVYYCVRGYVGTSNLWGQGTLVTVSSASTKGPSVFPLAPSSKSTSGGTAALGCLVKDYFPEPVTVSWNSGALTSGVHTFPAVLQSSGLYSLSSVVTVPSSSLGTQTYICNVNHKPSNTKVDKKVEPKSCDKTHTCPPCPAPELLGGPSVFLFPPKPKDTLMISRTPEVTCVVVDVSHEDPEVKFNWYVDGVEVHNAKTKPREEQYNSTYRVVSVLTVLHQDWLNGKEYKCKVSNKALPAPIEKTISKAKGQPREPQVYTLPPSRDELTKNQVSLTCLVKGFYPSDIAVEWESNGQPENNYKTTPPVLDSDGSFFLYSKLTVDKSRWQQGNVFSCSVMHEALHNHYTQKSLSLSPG
light: B2 light
notes: also called humanized 8K22 H3L1
B4: v23798 (antibody, human IgG1, kappa)
heavy: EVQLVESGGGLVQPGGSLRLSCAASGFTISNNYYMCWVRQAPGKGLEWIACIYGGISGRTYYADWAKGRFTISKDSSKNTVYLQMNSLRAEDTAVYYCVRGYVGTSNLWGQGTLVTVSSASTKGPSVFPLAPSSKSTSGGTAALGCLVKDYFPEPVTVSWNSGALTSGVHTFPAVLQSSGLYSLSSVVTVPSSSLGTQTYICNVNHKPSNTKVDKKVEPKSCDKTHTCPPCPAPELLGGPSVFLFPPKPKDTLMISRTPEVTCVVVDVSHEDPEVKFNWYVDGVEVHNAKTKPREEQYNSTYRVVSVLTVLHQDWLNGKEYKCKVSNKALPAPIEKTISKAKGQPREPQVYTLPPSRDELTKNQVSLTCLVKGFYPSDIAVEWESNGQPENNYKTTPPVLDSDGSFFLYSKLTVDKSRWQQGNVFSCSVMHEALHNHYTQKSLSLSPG
light: B2 light
notes: also called humanized 8K22 H5L1
B5: v23799 (antibody, human IgG1, kappa)
heavy: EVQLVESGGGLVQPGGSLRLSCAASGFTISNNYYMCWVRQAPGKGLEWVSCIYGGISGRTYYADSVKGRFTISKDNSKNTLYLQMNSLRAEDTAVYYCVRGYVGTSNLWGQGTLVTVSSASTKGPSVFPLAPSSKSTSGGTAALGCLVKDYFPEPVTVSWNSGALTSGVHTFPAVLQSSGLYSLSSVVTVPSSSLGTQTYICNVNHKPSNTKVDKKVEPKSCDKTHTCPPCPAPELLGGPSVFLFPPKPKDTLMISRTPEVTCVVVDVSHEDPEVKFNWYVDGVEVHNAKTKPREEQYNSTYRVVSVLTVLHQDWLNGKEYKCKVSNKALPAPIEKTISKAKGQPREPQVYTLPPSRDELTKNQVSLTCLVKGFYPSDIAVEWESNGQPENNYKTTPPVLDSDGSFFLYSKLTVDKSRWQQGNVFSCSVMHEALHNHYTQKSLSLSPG
light: B2 light with I112V
notes: also called humanized 8K22 H1L2
B6: v23801 (antibody, human IgG1, kappa)
heavy: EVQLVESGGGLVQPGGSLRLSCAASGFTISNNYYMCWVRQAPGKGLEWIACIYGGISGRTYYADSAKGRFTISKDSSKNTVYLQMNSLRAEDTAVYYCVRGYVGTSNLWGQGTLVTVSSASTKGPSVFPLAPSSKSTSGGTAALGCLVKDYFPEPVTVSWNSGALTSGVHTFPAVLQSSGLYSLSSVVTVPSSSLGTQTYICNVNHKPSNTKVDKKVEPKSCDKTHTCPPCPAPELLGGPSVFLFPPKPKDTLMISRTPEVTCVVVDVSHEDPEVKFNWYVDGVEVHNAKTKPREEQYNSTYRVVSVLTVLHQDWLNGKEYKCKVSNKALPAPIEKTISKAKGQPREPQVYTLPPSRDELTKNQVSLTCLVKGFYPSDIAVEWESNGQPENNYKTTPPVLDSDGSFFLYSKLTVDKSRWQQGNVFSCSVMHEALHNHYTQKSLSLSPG
light: B2 light with I112V
notes: also called humanized 8K22 H3L2
B7: v23804 (antibody, human IgG1, kappa, V domains shown)
VH: EVQLVESGGGLVQPGGSLRLSCAASGFTISNNYYMCWVRQAPGKGLEWVSCIYGGISGRTYYADSVKGRFTISKDNSKNTLYLQMNSLRAEDTAVYYCVRGYVGTSNLWGQGTLVTVSS
VL: DIQMTQSPSSLSASVGDRVTITCQASQSIYSSLAWYQQKPGKAPKLLIYDASHLASGVPSRFSGSRYGTDFTLTISSVQPEDFATYYCQGGWYSSAATYVPNTFGGGTKVEVKR
notes: also called humanized 8K22 H1L3
B8: v23805 (antibody, human IgG1, kappa, V domains shown)
VH: B7 VH with V49I, S50A, V66A, L81V
VL: B7 VL
notes: also called humanized 8K22 H2L3
B9: v23806 (antibody, human IgG1, kappa, V domains shown)
VH: B7 VH with V49I, S50A, V66A, N76S, L81V
VL: B7 VL
notes: also called humanized 8K22 H3L3
B10: v23808 (antibody, human IgG1, kappa, V domains shown)
VH: B7 VH with V49I, S50A, S65W, V66A, N76S, L81V
VL: B7 VL
notes: also called humanized 8K22 H5L3
B11: v23809 (antibody, human IgG1, kappa, V domains shown)
VH: B7 VH
VL: B7 VL with R66G, Y67S, F83A
notes: also called humanized 8K22 H1L4
B12: v23811 (antibody, human IgG1, kappa, V domains shown)
VH: B7 VH with V49I, S50A, V66A, N76S, L81V
VL: B7 VL with R66G, Y67S, F83A
notes: also called humanized 8K22 H3L4
B13: v23814 (antibody, human IgG1, kappa, V domains shown)
VH: B7 VH
VL: B7 VL with F83A
notes: also called humanized 8K22 H1L5
B14: v23815 (antibody, human IgG1, kappa, V domains shown)
VH: B7 VH with V49I, S50A, V66A, L81V
VL: B7 VL with F83A
notes: also called humanized 8K22 H2L5
B15: v23816 (antibody, human IgG1, kappa, V domains shown)
VH: B7 VH with V49I, S50A, V66A, N76S, L81V
VL: B7 VL with F83A
notes: also called humanized 8K22 H3L5
B16: v23818 (antibody, human IgG1, kappa, V domains shown)
VH: B7 VH with V49I, S50A, S65W, V66A, N76S, L81V
VL: B7 VL with F83A
notes: also called humanized 8K22 H5L5
B17: v23802 (antibody, human IgG1, kappa)
heavy: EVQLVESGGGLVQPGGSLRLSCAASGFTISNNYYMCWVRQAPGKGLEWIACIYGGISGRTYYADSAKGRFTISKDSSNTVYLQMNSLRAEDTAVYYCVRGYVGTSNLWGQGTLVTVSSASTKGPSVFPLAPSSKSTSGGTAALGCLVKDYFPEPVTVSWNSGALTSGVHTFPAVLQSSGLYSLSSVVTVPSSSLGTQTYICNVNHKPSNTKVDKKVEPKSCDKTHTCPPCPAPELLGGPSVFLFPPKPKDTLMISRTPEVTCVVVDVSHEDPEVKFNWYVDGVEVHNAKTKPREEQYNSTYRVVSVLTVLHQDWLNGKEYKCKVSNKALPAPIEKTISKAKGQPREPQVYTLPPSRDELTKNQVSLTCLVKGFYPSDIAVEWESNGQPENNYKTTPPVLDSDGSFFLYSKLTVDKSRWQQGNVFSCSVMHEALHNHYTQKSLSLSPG
light: B2 light with I112V
notes: also called humanized 8K22 H4L2
B18: v23797 (antibody, human IgG1, kappa)
heavy: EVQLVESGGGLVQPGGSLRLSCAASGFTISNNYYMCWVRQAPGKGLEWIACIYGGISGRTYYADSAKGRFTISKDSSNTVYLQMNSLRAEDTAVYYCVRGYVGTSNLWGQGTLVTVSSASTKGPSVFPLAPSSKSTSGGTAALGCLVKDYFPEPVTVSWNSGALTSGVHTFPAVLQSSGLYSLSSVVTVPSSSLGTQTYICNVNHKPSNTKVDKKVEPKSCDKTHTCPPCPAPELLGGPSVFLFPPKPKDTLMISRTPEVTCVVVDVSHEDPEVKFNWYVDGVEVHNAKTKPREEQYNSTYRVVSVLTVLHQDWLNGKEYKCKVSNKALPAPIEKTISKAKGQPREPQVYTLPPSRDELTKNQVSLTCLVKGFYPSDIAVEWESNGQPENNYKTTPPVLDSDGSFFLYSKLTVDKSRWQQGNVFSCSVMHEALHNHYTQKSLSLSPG
light: B2 light
notes: also called humanized 8K22 H4L1
B19: v23807 (antibody, human IgG1, kappa, V domains shown)
VH: EVQLVESGGGLVQPGGSLRLSCAASGFTISNNYYMCWVRQAPGKGLEWIACIYGGISGRTYYADSAKGRFTISKDSSNTVYLQMNSLRAEDTAVYYCVRGYVGTSNLWGQGTLVTVSS
VL: B7 VL
notes: also called humanized 8K22 H4L3
B20: v23812 (antibody, human IgG1, kappa, V domains shown)
VH: B19 VH
VL: B7 VL with R66G, Y67S, F83A
notes: also called humanized 8K22 H4L4
B21: v23817 (antibody, human IgG1, kappa, V domains shown)
VH: B19 VH
VL: B7 VL with F83A
notes: also called humanized 8K22 H4L5
B22: v29675 (antibody, V domains shown)
VH: B19 VH
VL: DIQMTQSPSSLSASVGDRVTITCQASQSIYSSLAWYQQKPGKAPKLLIYDASHLASGVPSRFSGSRYGTDFTLTISSVQPEDFATYYCQGGWYSSAATYVPNTFGGGTKVEVK
notes: One-armed antibody, humanized 8K22 (H4L3 of v23807) Fab on a heterodimeric IgG1 Fc; also called N-term Parent Fab; Parent Fab antibody
B23: v29676 (scFv)
scFv: DIQMTQSPSSLSASVGDRVTITCQASQSIYSSLAWYQQKPGKAPKLLIYDASHLASGVPSRFSGSRYGTDFTLTISSVQPEDFATYYCQGGWYSSAATYVPNTFGGGTKVEVKGGGGSGGGGSGGGGSEVQLVESGGGLVQPGGSLRLSCAASGFTISNNYYMCWVRQAPGKGLEWIACIYGGISGRTYYADSAKGRFTISKDSSNTVYLQMNSLRAEDTAVYYCVRGYVGTSNLWGQGTLVTVSS
notes: One-armed: scFv fused by an Ala-Ala linker to the N-terminus (hinge) of Het FcA, paired with Het FcB Fc; also called N-term VL-(short)-VH
B24: v29682 (scFv)
scFv: B23 scFv with G106C, G173C
notes: One-armed, scFv at the C-terminus of Het FcA; VL-G100C and VH-G44C (Kabat) already in the entry; also called C-term VL-(short)-VH + disulfide
B25: v29677 (scFv)
scFv: DIQMTQSPSSLSASVGDRVTITCQASQSIYSSLAWYQQKPGKAPKLLIYDASHLASGVPSRFSGSRYGTDFTLTISSVQPEDFATYYCQGGWYSSAATYVPNTFGGGTKVEVKGGSGGGSGGGSGGGSGGGSGEVQLVESGGGLVQPGGSLRLSCAASGFTISNNYYMCWVRQAPGKGLEWIACIYGGISGRTYYADSAKGRFTISKDSSNTVYLQMNSLRAEDTAVYYCVRGYVGTSNLWGQGTLVTVSS
notes: One-armed, scFv at the N-terminus of Het FcA (Ala-Ala linker); also called N-term VL-(long)-VH
B26: v29684 (scFv)
scFv: B25 scFv with G106C, G178C
notes: One-armed, scFv at the C-terminus of Het FcA; VL-G100C and VH-G44C already in the entry; also called C-term VL-(long)-VH + disulfide
B27: v29678 (scFv)
scFv: B23 scFv
notes: also called C-term VL-(short)-VH
B28: v29679 (scFv)
scFv: EVQLVESGGGLVQPGGSLRLSCAASGFTISNNYYMCWVRQAPGKGLEWIACIYGGISGRTYYADSAKGRFTISKDSSNTVYLQMNSLRAEDTAVYYCVRGYVGTSNLWGQGTLVTVSSGGGGSGGGGSGGGGSDIQMTQSPSSLSASVGDRVTITCQASQSIYSSLAWYQQKPGKAPKLLIYDASHLASGVPSRFSGSRYGTDFTLTISSVQPEDFATYYCQGGWYSSAATYVPNTFGGGTKVEVK
notes: One-armed, scFv at the C-terminus of Het FcA (GGGG linker); also called C-term VH-(short)-VL
B29: v29683 (scFv)
scFv: B28 scFv with G45C, G239C
notes: One-armed, scFv at the C-terminus of Het FcA; VL-G100C and VH-G44C already in the entry; also called C-term VH-(short)-VL + disulfide
B30: v29680 (scFv)
scFv: B25 scFv
notes: One-armed, scFv at the C-terminus of Het FcA (GGGG linker); also called C-term VL-(long)-VH
B31: v29681 (scFv)
scFv: EVQLVESGGGLVQPGGSLRLSCAASGFTISNNYYMCWVRQAPGKGLEWIACIYGGISGRTYYADSAKGRFTISKDSSNTVYLQMNSLRAEDTAVYYCVRGYVGTSNLWGQGTLVTVSSGGSGGGSGGGSGGGSGGGSGDIQMTQSPSSLSASVGDRVTITCQASQSIYSSLAWYQQKPGKAPKLLIYDASHLASGVPSRFSGSRYGTDFTLTISSVQPEDFATYYCQGGWYSSAATYVPNTFGGGTKVEVK
notes: One-armed, scFv at the C-terminus of Het FcA (GGGG linker); also called C-term VH-(long)-VL
B32: v29685 (scFv)
scFv: B31 scFv with G45C, G244C
notes: One-armed, scFv at the C-terminus of Het FcA; VL-G100C and VH-G44C already in the entry; also called C-term VH-(long)-VL + disulfide

target: T1, recombinant His-tagged human FRα (human, UniProt P15328 25-234); assay: BLI, purified, average n=2
T1 construct: Bought protein; also called hFRα; FRα-HIS
T1 sequence (P15328 25-234 limits assumed): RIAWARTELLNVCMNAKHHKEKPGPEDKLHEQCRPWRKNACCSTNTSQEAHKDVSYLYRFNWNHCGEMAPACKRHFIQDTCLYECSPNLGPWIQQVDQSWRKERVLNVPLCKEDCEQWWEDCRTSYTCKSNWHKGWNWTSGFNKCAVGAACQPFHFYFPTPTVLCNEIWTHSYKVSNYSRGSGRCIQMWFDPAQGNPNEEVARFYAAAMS
Experimental: (§1) The assay buffer used was KB buffer (kinetics buffer, composed of PBS pH 7.4, 0.1% BSA, 0.02% Tween 20, 0.05% sodium azide) supplemented with 0.06% Tween 20. The experiment was conducted at 25° C. with a shake speed of 1000 rpm.
(§2) Data analysis was performed using the Data analysis software 9.0′ (ForteBio). The reference-subtracted binding curves were globally fitted to the 1:1 interaction model to generate the binding kinetic parameters kₒₙ, koff, and the dissociation constant KD.

| Binder | Kd |
| --- | --- |
| B1 | 4.11 nM |
| B2 | 7.36 nM |
| B3 | 11.2 nM |
| B4 | 6.85 nM |
| B5 | 4.8 nM |
| B6 | 8.66 nM |
| B7 | 4.66 nM |
| B8 | 10.2 nM |
| B9 | 7 nM |
| B10 | 13.1 nM |
| B11 | 9.03 nM |
| B12 | 8.83 nM |
| B13 | 6.31 nM |
| B14 | 16.5 nM |
| B15 | 10.6 nM |
| B16 | 6.13 nM |
| B17 | 8.53 nM |
| B18 | 11.9 nM |
| B19 | 7.07 nM |
| B20 | 8.74 nM |
| B21 | 6.41 nM |

target: T1, recombinant His-tagged human FRα; assay: BLI, supernatant, n=1
Experimental: as §1, §2

| Binder | Kd |
| --- | --- |
| B1 | 5.94 nM |
| B2 | 15.1 nM |
| B3 | 22.2 nM |
| B4 | 11.9 nM |
| B5 | 13.8 nM |
| B6 | 22.1 nM |
| B7 | 9.29 nM |
| B8 | 16.2 nM |
| B9 | 11.5 nM |
| B10 | 19.3 nM |
| B11 | 12.1 nM |
| B12 | 22.5 nM |
| B13 | 10.1 nM |
| B14 | 16.7 nM |
| B15 | 10.4 nM |
| B16 | 17.4 nM |
| B17 | 17.9 nM |
| B18 | 14.9 nM |
| B19 | 10.9 nM |
| B20 | 19.5 nM |
| B21 | 9.5 nM |

target: T1, recombinant His-tagged human FRα; assay: BLI, n=2
Experimental: as §1, §2
All parameters remained the same except for the dissociation phase which was recorded for 1500 s.

| Binder | Kd |
| --- | --- |
| B22 | 4.1 nM |
| B23 | 3.9 nM |
| B24 | 2.1 nM |
| B25 | 5 nM |
| B26 | 0.88 nM |
| B27 | 5.1 nM |
| B28 | 0.39 nM |
| B29 | 1.1 nM |
| B30 | 1.8 nM |
| B31 | 2.6 nM |
| B32 | 4.2 nM |
